From the supplement of paper PMC10567573 come the findings set out here.

This data set in a line: protein stability index of a GFP-peptide fusion (GPS, HEK-293T) (PSI 1-6); higher = more stable. The following applies: c terminus: a fixed tail appended.

± gives the standard deviation.
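Further: 24-mer peptide tiles fused after GFP, lentivirally expressed, FACS-sorted into six equal bins by GFP/DsRed ratio, decoded by Illumina sequencing, PSI is the read-weighted mean bin number.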

On to SFLRDHSYATEADIISTVEFNHTG [PPP2R2B], for which the protein stability index reads like this: (treatment: DMSO) 3.65 ± 0.15; (treatment: MLN4924 1 uM, 8 h) 3.58 ± 0.19.

In the case of SFQGCMAQLFMDHLFAGAEVILLV [OR4A15], the protein stability index (treatment: DMSO) turned out to be 3.28 ± 1.2 and the protein stability index (treatment: MLN4924 1 uM, 8 h) was 3.18 ± 0.91.

Regarding SFVCWSRGFMEMNGRGELVESLKR [AUP1], the protein stability index was 2.36 ± 0.51 (treatment: DMSO) and 2.2 ± 0.27 (treatment: MLN4924 1 uM, 8 h).

Turning to SGLEKEVQRLTSRAARDYKIQNHG [FCHSD1], the protein stability index (treatment: DMSO) is 3.89 ± 0.16 and the protein stability index (treatment: MLN4924 1 uM, 8 h) is 3.61 ± 0.38.

In the case of SGSAVSTAPQQKPIGKISKNKKKK [SRPK2], the protein stability index was determined as 4.77 ± 0.43 (treatment: DMSO) and 5.07 ± 0.2 (treatment: MLN4924 1 uM, 8 h).

With SGSGSGPGCGSVPGSGSGPGPGSG [SPAG8], the protein stability index was determined as 5.08 ± 0.24 (treatment: DMSO) and 5.12 ± 0.12 (treatment: MLN4924 1 uM, 8 h).

For the sequence SGTDAEETILNAFKMLDPDGKGKI [MYL5], the protein stability index by setting is: (treatment: DMSO) 4.51 ± 0.18; (treatment: MLN4924 1 uM, 8 h) 4.31 ± 0.17.

Regarding SKIDHYVLEYRRTNFEGPPRLKED [FSD1], the protein stability index worked out at 3.52 ± 0.15 (treatment: DMSO) and 3.63 ± 0.087 (treatment: MLN4924 1 uM, 8 h).

On to SKKTFQITKQGDGVDFLSWFLNAL [USP39], for which the protein stability index was determined as 2.35 ± 0.16 (treatment: DMSO) and 2.29 ± 0.24 (treatment: MLN4924 1 uM, 8 h).

With SLAETECRYATQLQQIQGLIGGLE [KRT15], the protein stability index was determined as 2.83 ± 0.24 (treatment: DMSO) and 2.91 ± 0.32 (treatment: MLN4924 1 uM, 8 h).

As for SLCSLLESQSTSLRGSYNSLHDGS [LURAP1L], the protein stability index is 2.8 ± 0.11 (treatment: DMSO) and 2.87 ± 0.41 (treatment: MLN4924 1 uM, 8 h).

SLELPKAIQDQLPRLQQLLKTLEE [FANCE] returned a protein stability index (treatment: DMSO) of 2.66 ± 0.32 and a protein stability index (treatment: MLN4924 1 uM, 8 h) of 2.85 ± 0.24.

SLEPFRPQQAPQDDGSQDPEVLDR [PWWP2B] returned a protein stability index (treatment: DMSO) of 5.51 ± 0.16 and a protein stability index (treatment: MLN4924 1 uM, 8 h) of 5.53 ± 0.14.

As to SLFSYGLRESIASYLSLTSEDNTS [SLA], the protein stability index was found to be 2.49 ± 0.19 (treatment: DMSO) and 2.61 ± 0.22 (treatment: MLN4924 1 uM, 8 h).

With SLGGIRACTLTVFPPEETTPSPSR [KLHL13], the protein stability index amounted to 3.63 ± 0.21 (treatment: DMSO) and 3.77 ± 0.17 (treatment: MLN4924 1 uM, 8 h).

For the sequence SLPASSYSQDPVYANGGLNYSYRG [NOL4L], the protein stability index by setting is: (treatment: DMSO) 3.44 ± 0.12; (treatment: MLN4924 1 uM, 8 h) 3.62 ± 0.15.

As for SLRDKVLQLQKGSDTEAQCEVMQE [INTS3], the protein stability index is 5.11 ± 0.23 (treatment: DMSO) and 5.08 ± 0.2 (treatment: MLN4924 1 uM, 8 h).

In the case of SLSLRLPHQPVTAITRVSDRFSGE [SMTNL2], the protein stability index came out at 3.8 ± 0.28 (treatment: DMSO) and 4.16 ± 0.1 (treatment: MLN4924 1 uM, 8 h).

As to SLTRSNRHRLRWHSFQSSHRPSLN [DLC1], the protein stability index is, setting by setting: (treatment: DMSO) 3.05 ± 0.14; (treatment: MLN4924 1 uM, 8 h) 3.41 ± 0.31.

On to SNAMLVGDKLKFLSMLLTLKCEMN [ACSBG2], for which the protein stability index reads like this: (treatment: DMSO) 2.66 ± 0.62; (treatment: MLN4924 1 uM, 8 h) 2.52 ± 0.052.

In turn, SNCCFTFSGHFLCTSSWDKNLKIW [WDR88] showed a protein stability index (treatment: DMSO) of 2.22 ± 0.97 and a protein stability index (treatment: MLN4924 1 uM, 8 h) of 2.3 ± 0.4.

For SNCLGIRDFAETHNCVDLMQAAEV [KLHL12], the protein stability index by setting is: (treatment: DMSO) 4.05 ± 0.64; (treatment: MLN4924 1 uM, 8 h) 3.68 ± 0.59.

With SNDGARRQFEFYLEEMILPLMVAS [BTBD10], the protein stability index by setting is: (treatment: DMSO) 2.25 ± 0.078; (treatment: MLN4924 1 uM, 8 h) 2.2 ± 0.073.

Turning to SNFNYFYHRETEGEEQSQYMHVGS [KCNA3], the protein stability index amounted to 3.89 ± 0.08 (treatment: DMSO) and 3.88 ± 0.48 (treatment: MLN4924 1 uM, 8 h).

In the case of SPNRSLPSPGVLCGSARPKPYDPP [ATF4], the protein stability index reads like this: (treatment: DMSO) 3.67 ± 0.19; (treatment: MLN4924 1 uM, 8 h) 3.72 ± 0.26.

Take SPWDQEERPAQRDCSFPGLPRHQD [TRAF3IP2]: the protein stability index reads like this: (treatment: DMSO) 5.48 ± 0.23; (treatment: MLN4924 1 uM, 8 h) 5.36 ± 0.38.

Take SQKVLGLNEDPLKWWSDRLALFPL [ZBED1]: the protein stability index (treatment: MLN4924 1 uM, 8 h) was 2.14 ± 0.63.

Regarding SQPAVELVSGSQSALGPPPAASNS [CLINT1], the protein stability index came to 5.04 ± 0.31 (treatment: DMSO) and 5.21 ± 0.33 (treatment: MLN4924 1 uM, 8 h).

Sequence SRIAKGGVDHTKMSLHGASGGHER [BTBD10] came in with a protein stability index (treatment: DMSO) of 4.5 ± 0.19 and a protein stability index (treatment: MLN4924 1 uM, 8 h) of 4.43 ± 0.14.

On to SRKGELTPLPETGYWRVRLWNGDK [TRIM39], for which the protein stability index is, setting by setting: (treatment: DMSO) 2.63 ± 0.057; (treatment: MLN4924 1 uM, 8 h) 2.58 ± 0.36.

As for SRVTDPVGDIVSFMHSFEEKYGRA [FAF2], the protein stability index is, setting by setting: (treatment: DMSO) 3.34 ± 0.25; (treatment: MLN4924 1 uM, 8 h) 3.59 ± 0.36.

In turn, SSCYPLIPSTPEEVSADDETPNPP [MAGEA10] had a protein stability index (treatment: DMSO) of 5.46 ± 0.31 and a protein stability index (treatment: MLN4924 1 uM, 8 h) of 5.44 ± 0.27.

The sequence SSEVDELIHKADEVTLSEAGSTAG [PALM] came in with a protein stability index (treatment: DMSO) of 5.65 ± 0.15 and a protein stability index (treatment: MLN4924 1 uM, 8 h) of 5.58 ± 0.16.

Turning to SSSSLGNKLQTLSPSHKGIAAPHA [ZC2HC1A], the protein stability index was 3.81 ± 0.22 (treatment: DMSO) and 3.97 ± 0.26 (treatment: MLN4924 1 uM, 8 h).

As to SSSTPLEDEEPQEPNRLETGEAGE [RTN2], the protein stability index runs as follows: (treatment: DMSO) 5.51 ± 0.34; (treatment: MLN4924 1 uM, 8 h) 5.56 ± 0.3.

SSTSCLMPSKLFAGLVHVKQCIVA [CRYL1] yielded a protein stability index (treatment: DMSO) of 2.44 ± 0.31 and a protein stability index (treatment: MLN4924 1 uM, 8 h) of 2.11 ± 0.25.

Consider STFSSGPSDKMKWCLRVNPKGLDD [SPOPL], for which the protein stability index runs as follows: (treatment: DMSO) 2.73 ± 0.5; (treatment: MLN4924 1 uM, 8 h) 3 ± 0.47.
